Results as given in paper doi:10.1101/2020.09.30.319905.
“And” between values parts separate entries of the source, which are not always exact repeats. Identical values can stand only once.

How the values were obtained:
[1] = biological target: Truncated ApoE3, residues 80-255 (central helical repeat segment) (human) (UniProt P02649); experiment: SAXS
[2] = biological target: Truncated ApoE3, residues 80-255 (central helical repeat segment) (human) (UniProt P02649); experiment: cross-linking

stoichiometry N [1]: 4 | stoichiometry N [2]: 2 and 3
Substance: Truncated ApoE3, residues 80-255 (central helical repeat segment) (from UniProt P02649 80-255) (domain or fragment)
